Results on three molecules are retold here after patent US20220332804A1 (CSL INNOVATION, published 2022).

Experiment [1] addresses T1, human complement C2 (human, UniProt P06681 21-752).
T1 construct: Recombinant full-length human C2 with C-terminal 8x His tag, purified from Expi293F supernatant; also called human C2; huC2
T1 sequence: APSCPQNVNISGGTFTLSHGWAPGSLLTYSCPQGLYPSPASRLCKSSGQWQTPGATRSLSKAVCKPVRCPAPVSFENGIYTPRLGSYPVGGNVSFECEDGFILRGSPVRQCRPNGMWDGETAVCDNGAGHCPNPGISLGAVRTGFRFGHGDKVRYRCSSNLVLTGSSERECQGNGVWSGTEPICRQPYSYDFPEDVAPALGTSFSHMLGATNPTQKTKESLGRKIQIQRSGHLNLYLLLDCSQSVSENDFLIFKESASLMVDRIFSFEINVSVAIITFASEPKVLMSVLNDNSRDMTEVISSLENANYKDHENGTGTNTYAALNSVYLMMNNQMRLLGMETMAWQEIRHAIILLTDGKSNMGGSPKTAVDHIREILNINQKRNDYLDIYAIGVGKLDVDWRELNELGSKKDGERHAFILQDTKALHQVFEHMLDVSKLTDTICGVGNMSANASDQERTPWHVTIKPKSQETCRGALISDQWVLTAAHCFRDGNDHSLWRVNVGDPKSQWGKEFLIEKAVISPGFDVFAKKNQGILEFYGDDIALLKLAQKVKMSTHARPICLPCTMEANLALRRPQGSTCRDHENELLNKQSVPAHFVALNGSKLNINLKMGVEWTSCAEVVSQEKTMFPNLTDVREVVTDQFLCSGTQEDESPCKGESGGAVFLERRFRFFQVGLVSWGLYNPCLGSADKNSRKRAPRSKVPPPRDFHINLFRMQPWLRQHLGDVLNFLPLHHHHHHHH
The experiment can be described thus: SPR, mAb captured, huC2 analyte, pH 6, steady state.

Experiment [2] addresses T2, Activated human C2 (huC2a) (human, UniProt P06681 244-752).
T2 construct: domain: C2a; also called human C2a
T2 sequence (looked up): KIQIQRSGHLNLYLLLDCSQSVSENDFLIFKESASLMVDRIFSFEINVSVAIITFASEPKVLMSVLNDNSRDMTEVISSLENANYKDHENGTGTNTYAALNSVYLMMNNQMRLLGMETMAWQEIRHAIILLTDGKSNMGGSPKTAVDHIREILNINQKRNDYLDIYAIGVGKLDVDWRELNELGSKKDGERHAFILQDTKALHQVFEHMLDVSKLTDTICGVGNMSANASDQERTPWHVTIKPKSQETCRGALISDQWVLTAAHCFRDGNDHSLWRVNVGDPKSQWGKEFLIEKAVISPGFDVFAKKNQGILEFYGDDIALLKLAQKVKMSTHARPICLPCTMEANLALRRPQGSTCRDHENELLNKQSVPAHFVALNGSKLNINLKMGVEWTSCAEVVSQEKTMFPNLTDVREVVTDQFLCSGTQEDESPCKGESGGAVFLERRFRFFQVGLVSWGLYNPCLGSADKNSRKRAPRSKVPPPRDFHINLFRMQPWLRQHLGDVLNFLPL
The experiment is described as follows: SPR, mAb captured, neutral and acidic pH, 0 to 2 mM CaCl2.
Procedure: Surface plasmon resonance (SPR, Biacore) was used for all binding affinity analyses. In brief, goat anti-human IgG was directly immobilised onto the carboxymethyl dextran surface of CM5 sensorchips to approximately 12,000 RU using standard NHS/EDC chemistry at pH 5. The immobilised antibody surface was pre-conditioned with ten injections of polyclonal human IgG (Privigen 60 s) prepared at 1 μg/mL. Ligands (anti-C2 mAbs) were captured at the beginning of each cycle as described below. An adjacent spot or flow cell in which only Polyclonal IgG was capture was used as a reference surface. The goat anti-human IgG Fc antibody surface was regenerate in 100 mM H3PO4, injected for 45 seconds at the end of each cycle. Experiments were performed at 37° C. and the flow rate of each experiment was kept constant at 30 μL/min.
The effect of calcium on antibody binding was determined with the addition of calcium chloride to the SPR running buffer. Calcium concentrations ranged from zero (i.e. no added calcium, control) to near physiological levels (0.02, 0.2 and 2 mM CaCl₂.2H₂O, MW 147.02 Da). […]
Purified human C2 zymogen was tested in physiological conditions (pH 7.3) at concentrations ranging from 1.9 to 500 nM and in acidic conditions (pH 6) at concentrations ranging from 3.9 to 2000 nM. […] Analyte association and dissociation were monitored for 180 and 600 seconds, respectively. […]

Experiment [3] deals with T3, human C2 F689A (human, UniProt P06681 21-752).
T3 sequence: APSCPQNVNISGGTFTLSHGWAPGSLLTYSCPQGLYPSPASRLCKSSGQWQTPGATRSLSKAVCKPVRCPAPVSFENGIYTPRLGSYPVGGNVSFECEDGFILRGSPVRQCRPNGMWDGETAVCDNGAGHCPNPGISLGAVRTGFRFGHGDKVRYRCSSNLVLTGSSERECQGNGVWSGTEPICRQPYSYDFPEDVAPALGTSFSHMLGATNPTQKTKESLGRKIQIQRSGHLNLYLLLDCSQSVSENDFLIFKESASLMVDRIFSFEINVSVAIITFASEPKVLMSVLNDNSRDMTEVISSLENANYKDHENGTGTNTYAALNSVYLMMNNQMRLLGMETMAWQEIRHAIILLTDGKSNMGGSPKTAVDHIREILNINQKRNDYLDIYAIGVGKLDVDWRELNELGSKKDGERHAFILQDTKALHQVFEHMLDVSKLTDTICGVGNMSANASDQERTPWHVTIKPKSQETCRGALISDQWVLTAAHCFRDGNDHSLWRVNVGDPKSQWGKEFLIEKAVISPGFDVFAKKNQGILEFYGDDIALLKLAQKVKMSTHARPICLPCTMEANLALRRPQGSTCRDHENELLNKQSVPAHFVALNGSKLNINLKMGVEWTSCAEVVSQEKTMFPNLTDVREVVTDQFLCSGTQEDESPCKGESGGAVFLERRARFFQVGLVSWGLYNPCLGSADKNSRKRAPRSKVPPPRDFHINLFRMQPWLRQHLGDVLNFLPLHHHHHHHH
The experiment can be described thus: SPR, antibody captured, C2 as analyte.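 Also: biacore SPR at 37 °C, anti-C2 mAbs captured via goat anti-human IgG on CM5 chips, double-referenced sensorgrams fit to a 1:1 kinetic or steady-state model.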

For experiment [4], the target named is T4, human C2 N403A (human, UniProt P06681 21-752).
T4 sequence: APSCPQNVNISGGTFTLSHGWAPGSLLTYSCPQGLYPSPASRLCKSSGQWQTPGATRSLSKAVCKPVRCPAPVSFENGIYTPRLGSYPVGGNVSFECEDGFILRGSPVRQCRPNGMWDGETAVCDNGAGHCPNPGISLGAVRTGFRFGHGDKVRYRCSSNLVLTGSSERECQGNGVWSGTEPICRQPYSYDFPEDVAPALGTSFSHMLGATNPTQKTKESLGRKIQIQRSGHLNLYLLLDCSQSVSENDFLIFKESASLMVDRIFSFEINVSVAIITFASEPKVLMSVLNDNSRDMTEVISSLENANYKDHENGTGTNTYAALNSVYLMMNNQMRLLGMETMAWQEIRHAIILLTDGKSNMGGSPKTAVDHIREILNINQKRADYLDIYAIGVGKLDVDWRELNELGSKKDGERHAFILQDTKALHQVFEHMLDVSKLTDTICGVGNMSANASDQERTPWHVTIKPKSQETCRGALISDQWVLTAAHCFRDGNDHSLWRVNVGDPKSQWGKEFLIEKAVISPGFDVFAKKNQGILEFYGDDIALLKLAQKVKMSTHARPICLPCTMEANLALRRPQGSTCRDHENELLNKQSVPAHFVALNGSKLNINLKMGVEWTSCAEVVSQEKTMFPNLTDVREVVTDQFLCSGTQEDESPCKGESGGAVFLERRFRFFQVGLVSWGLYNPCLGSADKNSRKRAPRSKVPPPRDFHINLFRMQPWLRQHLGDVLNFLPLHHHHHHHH
The experiment can be described thus: SPR; KD relative to WT C2.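 Also: biacore SPR at 37 °C, anti-C2 mAbs captured on an anti-human IgG chip, alanine or serine C2 surface mutants tested, KD from 1:1 fit compared with wild-type C2.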

B1: RF16-226 (antibody)
heavy: not shown
light: SYELTQPPSVSVSPGQTARITCSGDALTSKYVAWYQQKSGLAPLLVIYEDTRRPSGIPAKFSGSSSGSVATLTISGAHGDDEADYYCYSTDASGHQRVFGGGTKLTVLSQPKAAPSVTLFPPSSEELQANKATLVCLISDFYPGAVTVAWKADGSPVKAGVETTKPSKQSNNKYAASSYLSLTPEQWKSHRSYSCQVTHEGSTVEKTVAPTECS
B1: the Kd in experiment [1] is approximately 95 nM. For the same molecule, in experiment [2], the binding result is listed as “no binding”.

B2: RF16-226 (antibody, human IgG4 S228P, lambda)
heavy: not shown
light: SYELTQPPSVSVSPGQTARITCSGDALTSKYVAWYQQKSGLAPLLVIYEDTRRPSGIPAKFSGSSSGSVATLTISGAHGDDEADYYCYSTDASGHQRVFGGGTKLTVLSQPKAAPSVTLFPPSSEELQANKATLVCLISDFYPGAVTVAWKADGSPVKAGVETTKPSKQSNNKYAASSYLSLTPEQWKSHRSYSCQVTHEGSTVEKTVAPTECS
notes: pH-dependent anti-C2 antibody from a phage display library; also called WT
Molecule B2 displayed a Kd in experiment [3] of 9.3 nM.

B3: RF16-214 (antibody, V domains shown)
VH: EVQLLESGGGLVQPGGSLRLSCAASGFTFSWYQMMWVRQAPGKGLEWVSRIYPSGGGTAYADSVKGRFTISRDNSKNTLYLQMNSLRAEDTAVYYCARDAGYGDNWGQGTLVTVSS
VL: QSALTQPPSVSVSPGQTASITCSGDKLGEKYASWYQQKAGQSPVMVIYQDRKRPSGIPERFSGSNSGNTATLTISGTQAMDEADYYCQAWDTRAVVFGGGTKLTVLG
With B3, the Fold diff in experiment [4] turned out to be 1 fold.
